{"source": "paper PMC8718897", "about": "(Translational Oncology, 2021)", "binders": {"B1": {"name": "SIN3A (natural protein, UniProt Q96ST3 1-1273, looked up)", "chain": "MKRRLDDQESPVYAAQQRRIPGSTEAFPHQHRVLAPAPPVYEAVSETMQSATGIQYSVTPSYQVSAMPQSSGSHGPAIAAVHSSHHHPTAVQPHGGQVVQSHAHPAPPVAPVQGQQQFQRLKVEDALSYLDQVKLQFGSQPQVYNDFLDIMKEFKSQSIDTPGVISRVSQLFKGHPDLIMGFNTFLPPGYKIEVQTNDMVNVTTPGQVHQIPTHGIQPQPQPPPQHPSQPSAQSAPAPAQPAPQPPPAKVSKPSQLQAHTPASQQTPPLPPYASPRSPPVQPHTPVTISLGTAPSLQNNQPVEFNHAINYVNKIKNRFQGQPDIYKAFLEILHTYQKEQRNAKEAGGNYTPALTEQEVYAQVARLFKNQEDLLSEFGQFLPDANSSVLLSKTTAEKVDSVRNDHGGTVKKPQLNNKPQRPSQNGCQIRRHPTGTTPPVKKKPKLLNLKDSSMADASKHGGGTESLFFDKVRKALRSAEAYENFLRCLVIFNQEVISRAELVQLVSPFLGKFPELFNWFKNFLGYKESVHLETYPKERATEGIAMEIDYASCKRLGSSYRALPKSYQQPKCTGRTPLCKEVLNDTWVSFPSWSEDSTFVSSKKTQYEEHIYRCEDERFELDVVLETNLATIRVLEAIQKKLSRLSAEEQAKFRLDNTLGGTSEVIHRKALQRIYADKAADIIDGLRKNPSIAVPIVLKRLKMKEEEWREAQRGFNKVWREQNEKYYLKSLDHQGINFKQNDTKVLRSKSLLNEIESIYDERQEQATEENAGVPVGPHLSLAYEDKQILEDAAALIIHHVKRQTGIQKEDKYKIKQIMHHFIPDLLFAQRGDLSDVEEEEEEEMDVDEATGAVKKHNGVGGSPPKSKLLFSNTAAQKLRGMDEVYNLFYVNNNWYIFMRLHQILCLRLLRICSQAERQIEEENREREWEREVLGIKRDKSDSPAIQLRLKEPMDVDVEDYYPAFLDMVRSLLDGNIDSSQYEDSLREMFTIHAYIAFTMDKLIQSIVRQLQHIVSDEICVQVTDLYLAENNNGATGGQLNTQNSRSLLESTYQRKAEQLMSDENCFKLMFIQSQGQVQLTIELLDTEEENSDDPVEAERWSDYVERYMNSDTTSPELREHLAQKPVFLPRNLRRIRKCQRGREQQEKEGKEGNSKKTMENVDSLDKLECRFKLNSYKMVYVIKSEDYMYRRTALLRAHQSHERVSKRLHQRFQAWVDKWTKEHVPREMAAETSKWLMGEGLEGLVPCTTTCDTETLHFVSINKYRVKYGTVFKAP"}}, "target": "Krüppel-like factor 9 (KLF9) (human (endogenous in MDA-MB-231), UniProt Q13886 1-244)", "sequence (Q13886 whole entry)": "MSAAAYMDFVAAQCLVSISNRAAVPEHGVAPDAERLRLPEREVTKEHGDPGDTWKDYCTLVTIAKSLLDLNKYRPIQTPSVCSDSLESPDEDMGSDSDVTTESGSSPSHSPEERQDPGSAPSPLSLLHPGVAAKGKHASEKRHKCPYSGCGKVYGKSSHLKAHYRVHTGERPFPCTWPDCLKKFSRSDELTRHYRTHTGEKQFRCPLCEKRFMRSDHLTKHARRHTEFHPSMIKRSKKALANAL", "test": "co-IP"}
{"binder": "B1", "values": [{"measurement": "fold increase of association after 24 h with 5 uM PF1-SID peptide", "value": 4.6, "unit": "fold"}, {"measurement": "fold increase of association in PF1-SID cells against vector cells", "value": 2.5, "unit": "fold"}]}
